Experimental findings from article PMC7792996, “Crystal structure of death-associated protein kinase 1 in complex with the dietary compound resveratrol” (IUCrJ, 2021) are described below.

Substrate in the data set: Nc1ncnc2c1ncn2[C@@H]1O[C@H](COP(=O)(O)OP(=O)(O)OP(=O)(O)O)[C@@H](O)[C@H]1O
The experiment in a line: intrinsic ATPase kinetics by malachite green assay (Km). In kind it is biochemical, Homo sapiens. Conditions: Mg2+ ([…] MgCl2 in the assay) ATP-binding site.

The term Km denotes the concentration of substrate that gives half-maximal velocity. By kcat is commonly meant the number of substrate molecules converted per active site and unit of time at saturation. As usually defined, the kcat/Km is the second-order rate constant that governs catalysis at low substrate concentration.

B1: Death-associated protein kinase 1 (DAPK1) (Homo sapiens) (protein)
chain: MTVFRQENVDDYYDTGEELGSGQFAVVKKCREKSTGLQYAAKFIKKRRTKSSRRGVSREDIEREVSILKEIQHPNVITLHEVYENKTDVILILELVAGGELFDFLAEKESLTEEEATEFLKQILNGVYYLHSLQIAHFDLKPENIMLLDRNVPKPRIKIIDFGLAHKIDFGNEFKNIFGTPEFVAPEIVNYEPLGLEADMWSIGVITYILLSGASPFLGDTKQETLANVSAVNYEFEDEYFSNTSALAKDFIRRLLVKDPKKRMTIQDSLQHPWIKPKDTQQALS
notes: catalytic domain, residues 1–285
On to B1, for which the Km worked out at 21 ± 2.4 µM, the kcat was 0.012 ± 8.5e-05 s⁻¹ and the kcat/Km came to 733 ± 71.7 M⁻¹ s⁻¹.
